A short description of this series: amyloid nucleation score (Sup35N fusion, yeast selection) (log enrichment); library NNK1; higher = more nucleation; inactive = no reads after selection. In a few lines: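 Output and input plasmid inserts were sequenced by Illumina after psi-negative yeast carrying Sup35N fused to peptides of 20 random codons had been induced 24 hours with 100 μM copper sulfate and grown 7 days at 30°C on medium lacking adenine and uracil. The nucleation score is the DiMSum log enrichment of output over input reads, centred on the mode score of non-aggregating sequences. Sequences with under 100 input reads were excluded.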

± gives the uncertainty stated by the source.

The substance CTYNLTCLWHMELNSSMIMR returned an amyloid nucleation score of 5.37 ± 0.061. For PTGSYKAGSSSSLVYPFED the value was -0.062 ± 0.52; for YTGSL, -0.498 ± 0.63. For VQNGGSLTMPRALLANTWMS, the amyloid nucleation score was -0.671 ± 0.42. For the substance VWMYMHAFCYSTGRRKAMPG, the amyloid nucleation score was -1.76 ± 0.77. In the case of SSSKLLR, the amyloid nucleation score is -0.4 ± 0.7. Next, FNDRPVWVFCLRWWDSSVNS: -0.857 ± 0.84; GIGMRGVQHSSCEVARYWGS: 1.12 ± 0.35.

In the case of PVRSL, the amyloid nucleation score is -0.515 ± 0.48. SLMGALEIQRCSAFSSFLFR registered an amyloid nucleation score of 1.32 ± 0.41. Take RSGVVIVVLSVYGSSQRARG: the amyloid nucleation score is -0.108 ± 0.4. Next, MFARLNF: 3.98 ± 0.062. EYSIIYCICH: the amyloid nucleation score turned out to be 3.08 ± 0.14. For LFGPDLSTRNPGDVSVQSAA the value was 0 ± 0.39; for SISNPRSLLYVSRSYNSDEF, -0.956 ± 0.8; for LWYVAPHVTRSNFEVQGGCG, -0.249 ± 0.34. Next, RSVMCGWDHPRDRVGAPEWL: 0.439 ± 0.71; TTCCINSLMCTDTNSCIAGV: 2.08 ± 0.6. Turning to VKIHASEVYFPMQSTYLMVD, the amyloid nucleation score came out at 0.086 ± 0.72.

ARWKKQWFYT yielded an amyloid nucleation score of 0.796 ± 0.58. Next, IFVYCEFNKNRIPALASWVG: 0.93 ± 0.43. For LYTKFFEAMWQVWRFERTQR the value was 2.53 ± 0.21; for GVLEVIYVSLFRGRAESVFR, 1.67 ± 0.34; for HQINRWRLLPRGGTFKDGHN, 0.703 ± 0.54. RLAGKHKRTDTRSKRTPVLR came in with an amyloid nucleation score of 0.495 ± 0.47. As for SIRVSDYQRVFNNIGMSNCN, the amyloid nucleation score was -0.454 ± 0.53. In turn, LVNCVVGFLTLVNFWSIHQL showed an amyloid nucleation score of 0.206 ± 0.79. For PPGIRAYM the value was -0.036 ± 0.35; for TIDCMLWGYFRNDSTKCTAA, 0.205 ± 0.47; for RFFPDNNCMQCDATAEDTGL, -0.246 ± 1.4. For the substance WIFTREQAFFSDRCLAASSK, the amyloid nucleation score amounted to 0.649 ± 0.76. Next, KWGHSENVVVYFDGAFSWVS: 0.16 ± 0.6. Next, DDKLLRVLFLMCSPYYTIIG: -0.065 ± 0.22; YRFRWRNWSMWVSHKAHKAS: 0.851 ± 0.74. For NNMWSILTAAWDHVCSWRSS the value was 1.77 ± 0.5. In the case of KESECITS, the amyloid nucleation score was -0.849 ± 0.75. For YRVSNVNFSFATFFTHAPVR the value was 1.76 ± 0.16. The substance SSSKYMIFFYRAIHHHKGME gave an amyloid nucleation score of 0.31 ± 0.33. Consider HVHRIN, for which the amyloid nucleation score was -0.717 ± 1.1. In turn, GGNKPCG came in with an amyloid nucleation score of 2.11 ± 0.57.

In turn, NGTIHMPLVWGYKLDRPRGW came in with an amyloid nucleation score of 0.969 ± 0.7. Next, NSMLNDCHDKLIIGFSEGWS: 0.091 ± 0.47; VATCWRYSGMSARLLSGSLN: 0.516 ± 0.4. GGEDLRKFLDMFVIVSKNTT yielded an amyloid nucleation score of 0.67 ± 0.46. For TLYHSI, the amyloid nucleation score was -0.385 ± 0.56. In the case of NVTCSHPGFFYSIVKTYMFR, the amyloid nucleation score is -0.877 ± 1.9. For RYATSMYPL the value was 0.069 ± 0.56; for EAGNTDSAINGVRAKDGS, 1.15 ± 0.69; for SDYSLTCMGVYGEGKTRGNL, 0.045 ± 0.32.

Take SSVYVRLVMGF: the amyloid nucleation score was found to be 1.77 ± 0.61.

With FVCWVGTGLMIRVAIDQCWR, the amyloid nucleation score was -0.202 ± 0.31. Turning to LLESFTG, the amyloid nucleation score is -0.392 ± 0.46. Take KLIFKRSFNRMDLSSLCYFR: the amyloid nucleation score is -0.471 ± 0.39. In turn, SRWPTHGSQIFVLTESVLTN came in with an amyloid nucleation score of 0.062 ± 0.55. In the case of RLMSNYHEGAAHKGGKHMPW, the amyloid nucleation score is -0.495 ± 0.65.

Regarding LLSLFRYN, the amyloid nucleation score was found to be 0.537 ± 1.1. For GGLICTGNFY the value was “inactive”; for VANQNHLSCDIMSSARCERH, 0.244 ± 0.65; for VRMKIGNFSCCRYWKPPLYT, 1.29 ± 0.61. With HSASQLPYYQY, the amyloid nucleation score was determined as 0.498 ± 0.97.

Regarding TGNGTCCESFSRSDKENSDA, the amyloid nucleation score result was “inactive”.

Consider SRNAVVVVVQTYMDMTSCNT, for which the amyloid nucleation score worked out at 6.37 ± 0.068.

Consider WNGLYRFCVVRAQGSFDET, for which the amyloid nucleation score is -0.111 ± 0.32. Substance DTYITGSHCHFYMNCWKA gave an amyloid nucleation score of 8.519 ± 0.079. Substance ALMDKDLCLNMSGQKSLWFR showed an amyloid nucleation score of 0.073 ± 0.48. For SRVFRLVFKPSYGSLTRRCR the value was -0.904 ± 1.9. For IISDDNSGMWWVMFLV the value was 0.065 ± 0.61; for LCSNC, “inactive”. For the substance GVCWLKIRALPDSYWLVFL, the amyloid nucleation score is -0.776 ± 0.74. Next, LSFIACPYIVRVYAFNPRTG: 6.16 ± 0.071; WSNGF: 1.89 ± 0.45; VRAELVTVGCLRRATYYRPK: -0.319 ± 1.2. For LIGQLIFRPVNGARKIPV the value was -0.31 ± 0.29; for GKYMFPCCMTAITQKLRPRR, -0.108 ± 0.33.

Substance AFMSRVPFSHCIKSGGLQGT came in with an amyloid nucleation score of 0.19 ± 0.49. SGMHHHDKARNRG displayed an amyloid nucleation score of 1.26 ± 0.59.

In the case of LLITNGMSNDGNQCSS, the amyloid nucleation score result is “inactive”. For VTGKTLTLIEFFIHSQPLSR, the amyloid nucleation score stood at 0.217 ± 0.32. Next, RYCVGLVRICLKLGVREICS: 1.01 ± 0.97; AHSAYL: 0.43 ± 0.4. Turning to YQDVVDSDD, the amyloid nucleation score is -0.762 ± 0.64. IAILIYASAFKSSSGCGVKS showed an amyloid nucleation score of 0.177 ± 0.64. As to IRRRRTNIWGWAIYRAISIY, the amyloid nucleation score amounted to 0.345 ± 0.4. The substance GLDFCIVRACTKRYSWNQLG displayed an amyloid nucleation score of 1.69 ± 0.56. For the substance RKFAFKSIWSWYRI, the amyloid nucleation score came to 0.533 ± 0.54.

For the substance TWRCQLIYTCGNVSRKPVLL, the amyloid nucleation score was -0.148 ± 0.5.

In the case of HVYCLRWRYC, the amyloid nucleation score is -0.318 ± 0.35. YAAGGIRKSVGSTVRSPWGA yielded an amyloid nucleation score of 0.903 ± 0.84. For YVSAGRCKYDDLPTRV the value was 0.133 ± 0.67; for WSKHLAYIVYDVQ, -0.325 ± 1. On to NVLVAVFLFYVGPIGVAHCY, for which the amyloid nucleation score is 1.12 ± 0.37. For NVMIAIPYVGVDKRGMVSGM, the amyloid nucleation score came to 5.22 ± 0.1. With YLRRHQRNLPEQCCEAGINV, the amyloid nucleation score is -1.37 ± 1.5. Take HWLFWCQR: the amyloid nucleation score entry was “inactive”.

In the case of LRRGMQHAFADSENFVGSHV, the amyloid nucleation score is -0.168 ± 1.3. For PMSGVGYGRMRLSAAWPVDK the value was -0.604 ± 0.78; for YSFRAIDTQLTQTLTWLLIR, -0.563 ± 0.53; for DAIVDS, 0.084 ± 0.54. Next, PPSLQ: -0.263 ± 1.4; HSSDMCLSGLM: 0.002 ± 1.4; INRFEG: -0.385 ± 0.68. For NQYSFRGLS the value was “inactive”; for SIANNKRTKTVGLMLSCRSS, 3.79 ± 0.14.

Regarding ERFVYALIEFCIETERLHTE, the amyloid nucleation score is -0.459 ± 0.45.

(Values after the supplement of paper PMC12042874.)
